Source: US20250382383A1

Molecular target: soluble recombinant TGF-β1 (UniProt P01137)
Assay: cell-based or functional assay

soluble recombinant TGF-β1, sequence (P01137 279-390 limits assumed): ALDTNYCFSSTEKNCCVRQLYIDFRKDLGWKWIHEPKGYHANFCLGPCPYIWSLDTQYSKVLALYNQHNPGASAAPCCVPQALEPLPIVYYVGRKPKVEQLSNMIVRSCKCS
TGF-beta dominant negative receptor (TGFβ DNR), sequence (P37173 23-194 limits assumed): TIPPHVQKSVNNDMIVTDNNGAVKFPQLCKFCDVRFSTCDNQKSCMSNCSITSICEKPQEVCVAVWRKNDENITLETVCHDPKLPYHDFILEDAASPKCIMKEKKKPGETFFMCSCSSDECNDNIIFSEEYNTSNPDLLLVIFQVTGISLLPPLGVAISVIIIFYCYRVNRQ

## TGF-beta dominant negative receptor (TGFβ DNR) (from UniProt P37173 23-194)
  pSMAD2 (MFI/µg protein), TGFβ +; CAR-DNR T cells; Donor 1 (MFI/µg protein): 2210
  pSMAD2 (MFI/µg protein), TGFβ +; Tri-2A T cells; Donor 1 (MFI/µg protein): 1970
  pSMAD2 (MFI/µg protein), TGFβ +; Tri-2A T cells; Donor 2 (MFI/µg protein): 2080
  pSMAD2 (MFI/µg protein), TGFβ +; Tri-2A T cells; Donor 3 (MFI/µg protein): 1730
  pSMAD2 (MFI/µg protein), TGFβ +; Tri-IRES T cells; Donor 1 (MFI/µg protein): 3240
  pSMAD2 (MFI/µg protein), TGFβ +; Tri-IRES T cells; Donor 2 (MFI/µg protein): 3400
  pSMAD2 (MFI/µg protein), TGFβ +; Tri-IRES T cells; Donor 3 (MFI/µg protein): 2270
  pSMAD2 (MFI/µg protein), TGFβ +; Tri-mSCV T cells; Donor 1 (MFI/µg protein): 2480
  pSMAD2 (MFI/µg protein), TGFβ +; Tri-mSCV T cells; Donor 2 (MFI/µg protein): 1720
  pSMAD2 (MFI/µg protein), TGFβ +; Tri-mSCV T cells; Donor 3 (MFI/µg protein): 1200
  pSMAD2/3 (MFI CAR+), TGFb +; CAR-DNR T cells; Donor 1: 86.9 MFI
  pSMAD2/3 (MFI CAR+), TGFb +; CAR-DNR T cells; Donor 2: 105 MFI
  pSMAD2/3 (MFI CAR+), TGFb +; CAR-DNR T cells; Donor 3: 106 MFI
  pSMAD2/3 (MFI CAR+), TGFb +; Tri-2A T cells; Donor 1: 106 MFI
  pSMAD2/3 (MFI CAR+), TGFb +; Tri-2A T cells; Donor 2: 208 MFI
  pSMAD2/3 (MFI CAR+), TGFb +; Tri-2A T cells; Donor 3: 189 MFI
  pSMAD2/3 (MFI CAR+), TGFb +; Tri-IRES T cells; Donor 1: 70.6 MFI
  pSMAD2/3 (MFI CAR+), TGFb +; Tri-IRES T cells; Donor 2: 89.7 MFI
  pSMAD2/3 (MFI CAR+), TGFb +; Tri-IRES T cells; Donor 3: 89.4 MFI
  pSMAD3 (MFI/µg protein), TGFβ +; CAR-DNR T cells; Donor 1 (MFI/µg protein): 621
  pSMAD3 (MFI/µg protein), TGFβ +; Tri-2A T cells; Donor 1 (MFI/µg protein): 561
  pSMAD3 (MFI/µg protein), TGFβ +; Tri-2A T cells; Donor 2 (MFI/µg protein): 488
  pSMAD3 (MFI/µg protein), TGFβ +; Tri-2A T cells; Donor 3 (MFI/µg protein): 405
  pSMAD3 (MFI/µg protein), TGFβ +; Tri-IRES T cells; Donor 1 (MFI/µg protein): 942
  pSMAD3 (MFI/µg protein), TGFβ +; Tri-IRES T cells; Donor 2 (MFI/µg protein): 788
  pSMAD3 (MFI/µg protein), TGFβ +; Tri-IRES T cells; Donor 3 (MFI/µg protein): 643
  pSMAD3 (MFI/µg protein), TGFβ +; Tri-mSCV T cells; Donor 1 (MFI/µg protein): 660
  pSMAD3 (MFI/µg protein), TGFβ +; Tri-mSCV T cells; Donor 2 (MFI/µg protein): 460
  pSMAD3 (MFI/µg protein), TGFβ +; Tri-mSCV T cells; Donor 3 (MFI/µg protein): 377
